Data on eight molecules can be found in article PMC6393246, “Structural identification of conserved RNA binding sites in herpesvirus ORF57 homologs: implications for PAN RNA recognition” (Nucleic Acids Research, 2018).

The target in one data set is T1, UL69 200-540 (HCMV, UniProt P16749 200-540).
T1 sequence: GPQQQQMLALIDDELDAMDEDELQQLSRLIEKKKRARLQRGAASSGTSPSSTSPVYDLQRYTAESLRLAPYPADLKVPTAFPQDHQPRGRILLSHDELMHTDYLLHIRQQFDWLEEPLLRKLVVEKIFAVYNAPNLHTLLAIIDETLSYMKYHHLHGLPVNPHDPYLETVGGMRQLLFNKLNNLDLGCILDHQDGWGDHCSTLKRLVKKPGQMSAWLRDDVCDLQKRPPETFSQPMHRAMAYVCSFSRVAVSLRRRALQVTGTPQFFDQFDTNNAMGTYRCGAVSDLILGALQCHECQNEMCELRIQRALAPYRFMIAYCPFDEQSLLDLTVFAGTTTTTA
Put plainly: SPR; SPR: 20 mM HEPES, 250 mM NaCl, 0.05% Tween-20, pH 7.4, 25 C, protein up to 1 uM; NMR: 20 mM Na phosphate, 50 mM NaCl, 50 mM L-Arg, 50 mM L-Glu, 1 mM EDTA, 2 mM. To be noted: protein: recombinant; tags: Strep-tag (purification); chain copies: 4; label: 5'-biotin. (In SPR one partner is held on a chip, and binding of the other changes the refractive index at the surface.)

In the next data set the target is ICP27Δ241 (HSV-1, UniProt P10238 241-512). The data set is described as above. Particulars: protein: recombinant; tags: Strep-tag (purification); label: 5'-biotin.
The target of data set [1] is T2, hvsORF57Δ146 (herpesvirus saimiri (HVS), UniProt P13199 146-417). The description is as above. Particulars: protein: recombinant; tags: thioredoxin/Strep tag cleaved by HRV3C; residue 145 is cloning Gly; chain copies: 2; label: 5'-biotin.
Another data set has as its target T3, ksORF57Δ153 (Kaposi's sarcoma-associated herpesvirus …, UniProt Q2HR75 153-455).
T3 sequence: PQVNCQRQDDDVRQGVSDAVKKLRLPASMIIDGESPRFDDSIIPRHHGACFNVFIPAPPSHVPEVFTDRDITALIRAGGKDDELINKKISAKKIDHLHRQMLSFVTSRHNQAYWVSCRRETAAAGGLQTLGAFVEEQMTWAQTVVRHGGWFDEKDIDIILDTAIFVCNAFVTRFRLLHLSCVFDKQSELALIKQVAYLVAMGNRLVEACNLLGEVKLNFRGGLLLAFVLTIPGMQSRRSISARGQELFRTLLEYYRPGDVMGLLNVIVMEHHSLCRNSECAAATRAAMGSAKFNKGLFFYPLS
The data set is described as above. To be noted: protein: recombinant; tags: thioredoxin/Strep tag cleaved by HRV3C; chain copies: 2; label: 5'-biotin.

Data set [2] concerns the molecule itself. Put plainly: SEC-MALS; 0.5 ml at 1 mg/ml on Superdex 200 10/300GL, gel filtration buffer (20 mM HEPES, 150 mM NaCl, 50 mM L-Arg, 50 mM L-Glu, 1 mM TCEP, pH 7.4); homo-dimer. (In gel filtration, larger molecules generally elute earlier.)
The target in data set [3] is T2, hvsORF57Δ146. The data set is described as follows: X-ray crystallography; same U-bend interaction as PAN17; data not shown; SPR: 20 mM HEPES, 250 mM NaCl, 0.05% Tween-20, pH 7.4, 25 C, protein up to 1 uM; NMR: 20 mM Na phosphate, 50 mM NaCl, 50 mM L-Arg, 50 mM L-Glu, 1 mM EDTA, 2 mM. Particulars: protein: recombinant; tags: thioredoxin/Strep tag cleaved by HRV3C; residue 145 is cloning Gly; chain copies: 2.

For the next data set, the target named is T4, ksORF57 68-178 (Kaposi's sarcoma-associated herpesvirus …, UniProt Q2HR75 68-178).
T4 sequence: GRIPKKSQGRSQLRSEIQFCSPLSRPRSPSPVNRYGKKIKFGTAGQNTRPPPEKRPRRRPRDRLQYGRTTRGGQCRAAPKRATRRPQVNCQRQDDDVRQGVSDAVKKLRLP
Put plainly: NMR HSQC; equimolar, 50 uM protein; substantial broadening; SPR: 20 mM HEPES, 250 mM NaCl, 0.05% Tween-20, pH 7.4, 25 C, protein up to 1 uM; NMR: 20 mM Na phosphate, 50 mM NaCl, 50 mM L-Arg, 50 mM L-Glu, 1 mM EDTA, 2 mM. Particulars: protein: recombinant; tags: His-tag (purification), 15N labelled.

The target of data set [4] is T2, hvsORF57Δ146. Put plainly: X-ray crystallography; Zn2+ in protein; Mg2+/Ca2+ in crystallization; SPR: 20 mM HEPES, 250 mM NaCl, 0.05% Tween-20, pH 7.4, 25 C, protein up to 1 uM; NMR: 20 mM Na phosphate, 50 mM NaCl, 50 mM L-Arg, 50 mM L-Glu, 1 mM EDTA, 2 mM. To be noted: protein: recombinant; tags: thioredoxin/Strep tag cleaved by HRV3C; residue 145 is cloning Gly; chain copies: 2.

On to CAGUCGCGAAGAGG (ssRNA) [14merS (5'-biotin)], for which the binding result was “binds” in the data set with UL69 200-540 and “no binding” in the data set with ICP27Δ241.

On to CCGUCCCCGCCGCU (ssRNA) [14mer1 (5'-biotin)], for which the binding result with hvsORF57Δ146 [1] is “no binding”; with UL69 200-540, “binds”; with ksORF57Δ153, “no binding”; in the data set with ICP27Δ241 it was “no binding”.

B1: HVS ORF57 residues 146–417 (hvsORF57Δ146) (domain or fragment)
chain: PLLKLFDISILPKSGEPKLFLPVPSLPCQEAEKTNDKYVLAMAQRAMHDVPISSKQLTANLLPVKFKPLLSIVRYTPNYYYWVSMRKETIASANLCTVAAFLDESLCWGQQYLKNDFIFSENGKDIILDTSSALLSQLVHKIKMLPFCHCLMQTTPQDHIVKQVCYLIASNNRILDAVRYLQTSVIKSPIVLLLAYAVCLPAAIICTKNETQLYSHCMRILKEYRPGDVMNILHESLTQHLNKCPSSTCAYTTRAIVGTKANTTGLFFLPTQ
notes: ORF57 (ICP27 homolog) of herpesvirus saimiri (HVS), residues 146-417, the C-terminal ICP27-homology domain; Selenomethionine-derivatised protein was used for crystals of the free form; native protein for the RNA complex and SEC-MALS; also called C-terminal IHD of hvsORF57; C-terminal ICP27-homology domain of HVS ORF57; source: E. coli T7 express LysY, purified (StrepTrap HP, HRV3C cleavage, …)
B1: in data set [2], the stoichiometry N (as a rule, the number of molecules, sites or subunits per partner or assembly) turned out to be 2.

Take CACCUAUGGAUUUUGUG (ssRNA) [PAN17 (5'-biotin)]: the binding result was “binds” with hvsORF57Δ146 [1], “binds” in the data set with UL69 200-540, “binds” in the data set with ksORF57Δ153 and “no binding” in the data set with ICP27Δ241.

B2: KSHV ORF57 residues 153–455 (ksORF57Δ153) (domain or fragment)
chain: T3 sequence
notes: ORF57/Mta (ICP27 homolog) of Kaposi's sarcoma-associated herpesvirus (KSHV), residues 153-455, the C-terminal ICP27-homology domain; also called C-terminal IHD of ksORF57; source: E. coli T7 express LysY, purified (StrepTrap HP, HRV3C cleavage, Superdex 75); not shown: thioredoxin, N-terminal, cleaved
Regarding B2, in data set [2], the “stoichiometry N” value worked out at 2.

Take GAUUUUGU (ssRNA) [PAN 42-49]: the binding result in the data set with hvsORF57Δ146 [3] was “binds”.

With CAGUCGCGAAGAGG (ssRNA) [14merS], the binding result with ksORF57 68-178 is given as “binds”.

On to CACCUAUGGAUUUUGUG (ssRNA) [PAN17 (crystal)], for which the binding result in the data set with hvsORF57Δ146 [4] is reported as “binds”.
